We go through 17 molecules from patent US20190321401A1 (JUNO THERAPEUTICS, published 2019).

Sequences and labels used below:
T1: HPV 16 E7 peptide on HLA-A*02:01 (human)
T1 peptide: YMLDLQPET

T2: HPV 16 E6 peptide on HLA-A*02:01 (human)
T2 peptide: TIHDIILECV

B1: TCR 59 (TCR, V domains shown)
Valpha: GQQVMQIPQYQHVQEGEDFTTYCNSSTTLSNIQWYKQRPGGHPVFLIQLVKSGEVKKQKRLTFQFGEAKKNSSLHITATQTTDVGTYFCAPKREYGNKLVFGAGTILRVKS
Vbeta: EPEVTQTPSHQVTQMGQEVILRCVPISNHLYFYWYRQILGQKVEFLVSFYNNEISEKSEIFDDQFSVERPDGSNFTLKIRSTKLEDSAMYFCAYSGRASYEQYFGPGTRLTVT
B2: TCR 60 (TCR, V domains shown)
Valpha: QKEVEQNSGPLSVPEGAIASLNCTYSDRGSQSFFWYRQYSGKSPELIMFIYSNGDKEDGRFTAQLNKASQYVSLLIRDSQPSDSATYLCAVNMLGSGGSNYKLTFGKGTLLTVNP
Vbeta: B1 Vbeta with Y94I, G96R, R97T, A98V
B3: TCR 61 (TCR, V domains shown)
Valpha: QKEVEQNSGPLSVPEGAIASLNCTYSDRGSQSFFWYRQYSGKSPELIMFIYSNGDKEDGRFTAQLNKASQYVSLLIRDSQPSDSATYLCAVNIENNNARLMFGDGTQLVVKP
Vbeta: B1 Vbeta with Y94S, S95T, G96K, A98F
B4: TCR 58 (TCR, V domains shown)
Valpha: RKEVEQDPGPFNVPEGATVAFNCTYSNSASQSFFWYRQDCRKEPKLLMSVYSSGNEDGRFTAQLNRASQYISLLIRDSKLSDSATYLCVVNRDNYGQNFVFGPGTRLSVLP
Vbeta: B1 Vbeta with Y94S, S95T, G96P, A98S
B5: TCR 56 (TCR, V domains shown)
Valpha: GQNIDQPTEMTATEGAIVQINCTYQTSGFNGLFWYQQHAGEAPTFLSYNVLDGLEEKGRFSSFLSRSKGYSYLLLKELQMKDSASYLCAVRDWGYGGATNKLIFGTGTLLAVQP
Vbeta: NAGVMQNPRHLVRRRGQEARLRCSPMKGHSHVYWYRQLPEEGLKFMVYLQKENIIDESGMPKERFSAEFPKEGPSILRIQQVVRGDSAAYFCASSPDESRDSNQPQHFGDGTRLSIL
B6: TCR 64 (TCR, V domains shown)
Valpha: AQKVTQAQTEISVVEKEDVTLDCVYETRDTTYYLFWYKQPPSGELVFLIRRNSFDEQNEISGRYSWNFQKSTSSFNFTITASQVVDSAVYFCALSGVDNYGQNFVFGPGTRLSVLP
Vbeta: DTAVSQTPKYLVTQMGNDKSIKCEQNLGHDTMYWYKQDSKKFLKIMFSYNNKELIINETVPNRFSPKSPDKAHLNLHINSLELGDSAVYFCASSQGEAGANVLTFGAGSRLTVL
B7: TCR 63 (TCR, V domains shown)
Valpha: SQELEQSPQSLIVQEGKNLTINCTSSKTLYGLYWYKQKYGEGLIFLMMLQKGGEEKSHEKITAKLDEKKQQSSLHITASQPSHAGIYLCGADIDDYKLSFGAGTTVTVRA
Vbeta: GAGVSQSPRYKVAKRGQDVALRCDPISGHVSLFWYQQALGQGPEFLTYFQNEAQLDKSGLPSDRFFAERPEGSVSTLKIQRTQQEDSAVYLCASRPRQGYNDNEQFFGPGTRLTVL
B8: TCR 57 (mouse constant regions) (TCR, V domains shown)
V domain 1: TQLLEQSPQFLSIQEGENLTVYCNSSSVFSSLQWYRQEPGEGPVLLVTVVTGGEVKKLKRLTFQFGDARKDSSLHITAAQPGDTGLYLCAGARNFNKFYFGSGTKLNVKP
V domain 2: GAVVSQHPSWVICKSGTSVKIECRSLDFQATTMFWYRQFPKQSLMLMATSNEGSKATYEQGVEKDKFLINHASLTLSTLTVTSAHPEDSSFYICSARSWRGGLEQFFGPGTRLTVLE
B9: TCR 64 (mouse constant regions) (TCR, V domains shown)
V domain 1: B6 Valpha
V domain 2: DTAVSQTPKYLVTQMGNDKSIKCEQNLGHDTMYWYKQDSKKFLKIMFSYNNKELIINETVPNRFSPKSPDKAHLNLHINSLELGDSAVYFCASSQGEAGANVLTFGAGSRLTVLE
B10: TCR 58 (mouse constant regions) (TCR, V domains shown)
V domain 1: B4 Valpha
V domain 2: EPEVTQTPSHQVTQMGQEVILRCVPISNHLYFYWYRQILGQKVEFLVSFYNNEISEKSEIFDDQFSVERPDGSNFTLKIRSTKLEDSAMYFCASTPRSSYEQYFGPGTRLTVTE
B11: TCR 61 (mouse constant regions) (TCR, V domains shown)
V domain 1: B3 Valpha
V domain 2: B10 V domain 2 with P96K, S98F
B12: TCR 59 (mouse constant regions) (TCR, V domains shown)
V domain 1: B1 Valpha
V domain 2: B10 V domain 2 with S94Y, T95S, P96G, S98A
B13: TCR 60 (mouse constant regions) (TCR, V domains shown)
V domain 1: B2 Valpha
V domain 2: B10 V domain 2 with S94I, T95S, P96R, R97T, S98V
B14: TCR 65 (mouse constant regions) (TCR, V domains shown)
V domain 1: EDQVTQSPEALRLQEGESSSLNCSYTVSGLRGLFWYRQDPGKGPEFLFTLYSAGEEKEKERLKATLTKKESFLHITAPKPEDSATYLCAVQAERGSTLGRLYFGRGTQLTVWP
V domain 2: DVKVTQSSRYLVKRTGEKVFLECVQDMDHENMFWYRQDPGLGLRLIYFSYDVKMKEKGDIPEGYSVSREKKERFSLILESASTNQTSMYLCASSLWGRRNTGELFFGEGSRLTVLE
B15: TCR 56 (mouse constant regions) (TCR, V domains shown)
V domain 1: B5 Valpha
V domain 2: NAGVMQNPRHLVRRRGQEARLRCSPMKGHSHVYWYRQLPEEGLKFMVYLQKENIIDESGMPKERFSAEFPKEGPSILRIQQVVRGDSAAYFCASSPDESRDSNQPQHFGDGTRLSILE
notes: Human variable regions on mouse constant regions with added cysteines (Calpha Thr48Cys, Cbeta Ser57Cys); Entries are the full chains without signal peptide
B16: TCR 63 (mouse constant regions) (TCR, V domains shown)
V domain 1: B7 Valpha
V domain 2: GAGVSQSPRYKVAKRGQDVALRCDPISGHVSLFWYQQALGQGPEFLTYFQNEAQLDKSGLPSDRFFAERPEGSVSTLKIQRTQQEDSAVYLCASRPRQGYNDNEQFFGPGTRLTVLE
B17: TCR 62 (mouse constant regions) (TCR, V domains shown)
V domain 1: AQTVTQSQPEMSVQEAETVTLSCTYDTSENNYYLFWYKQPPSRQMILVIRQEAYKQQNATENRFSVNFQKAAKSFSLKISDSQLGDTAMYFCALYTYKYIFGTGTRLKVLA
V domain 2: EAGVAQSPRYKIIEKRQSVAFWCNPISGHATLYWYQQILGQGPKLLIQFQNNGVVDDSQLPKDRFSAERLKGVDSTLKIQPAKLEDSAVYLCASSLDTRGSSYNEQFFGPGTRLTVLE

Where a chain is given by its changes, count along the chain named.

In the first experiment the target is T1, HPV 16 E7 peptide on HLA-A*02:01. The experiment can be described thus: multimer staining.
In the case of B1, the binding result is reported as “recognises”.
On the same count and under the same terms, as for B2, the entry is “recognises”; as for B3, “recognises”.
Turning to B4, the binding result was “recognises”.
B5: the binding result is “no recognition”.

For the next experiment, the target named is T2, HPV 16 E6 peptide on HLA-A*02:01. As to the kind of experiment: multimer staining.
On to B1, for which the binding result is on record as “no recognition”.
The same measure, in the same setting: as for B2, the entry is “no recognition”; as for B3, “no recognition”; as for B6, “no recognition”.
Consider B4, for which the binding result is “no recognition”.
On the same count and under the same terms, in the case of B5 it was “no recognition”; in that of B7, “no recognition”.

The next experiment addresses T3, HPV16 E7(11-19)-peptide-MHC tetramer complex (human papillomavirus 16 (HPV16); human).
T3 construct: also called E7(11-19)-specific tetramer; MHC/E7(11-19) peptide tetramer
As to the kind of experiment: flow cytometry, peptide-MHC tetramer staining of TCR-transduced primary human T cells.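 Also: normal donor T cells activated with anti-CD3/anti-CD28, then lentivirally transduced with TCRs, with mock-transduced cells as control, co-stained for the transduction marker and CD8, tetramers presented by HLA-A02:01.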
Method: (§1) CD8+ and CD4+ T cells were isolated from normal human donors and were stimulated with anti-CD3/anti-CD28 reagent, and then were transduced with a lentiviral preparation encoding various TCRs, or were subjected to a mock transduction control (cells treated under the same conditions used for lentiviral transduction but without addition of lentivirus). Following transduction, the cells were cultured in media containing human serum and cytokines.
(§2) After transduction, the cells were assessed by flow cytometry for staining with an antibody that recognized the surrogate marker, an anti-CD8 antibody, and a HPV 16 E6(29-38)- or HPV16 E7(11-19)-peptide-MHC tetramer complex. […] The reference TCR contains a mouse constant region.
(§3) Column 3 and 4 sets forth the percentage of CD8+ cells and CD8− cells (CD4+ cells) positive for E7(11-19)-specific tetramer staining in flow cytometry. Column 5 and 6 sets forth the percentage of CD8+ cells and CD8− cells (CD4+ cells) positive for E6(29-38)-specific tetramer staining in flow cytometry.
In the case of B8, the “% of CD8+ cells positive for E7(11-19) tetramer staining” value worked out at 95% and the “% of CD8- (CD4+) cells positive for E7(11-19) tetramer staining” value was determined as 86%.
For B9, the “% of CD8+ cells positive for E7(11-19) tetramer staining” value worked out at 0.13% and the “% of CD8- (CD4+) cells positive for E7(11-19) tetramer staining” value is 0.06%.
As for B10, the “% of CD8+ cells positive for E7(11-19) tetramer staining” value was found to be 9.91% and the “% of CD8- (CD4+) cells positive for E7(11-19) tetramer staining” value was found to be 0.1%.
As for B11, the “% of CD8+ cells positive for E7(11-19) tetramer staining” value turned out to be 17.2% and the “% of CD8- (CD4+) cells positive for E7(11-19) tetramer staining” value stood at 0.13%.
Regarding B12, the “% of CD8+ cells positive for E7(11-19) tetramer staining” value was determined as 28% and the “% of CD8- (CD4+) cells positive for E7(11-19) tetramer staining” value amounted to 0.16%.
Regarding B13, the “% of CD8+ cells positive for E7(11-19) tetramer staining” value amounted to 21.5% and the “% of CD8- (CD4+) cells positive for E7(11-19) tetramer staining” value is 0.13%.
In the case of B14, the “% of CD8+ cells positive for E7(11-19) tetramer staining” value came out at 0.26% and the “% of CD8- (CD4+) cells positive for E7(11-19) tetramer staining” value was determined as 0.07%.
The matching figures for B15: 0.05% and 0.13%.
In the case of B16, the “% of CD8+ cells positive for E7(11-19) tetramer staining” value amounted to 0.3% and the “% of CD8- (CD4+) cells positive for E7(11-19) tetramer staining” value stood at 0.25%.
Regarding B17, the “% of CD8+ cells positive for E7(11-19) tetramer staining” value was 38.8% and the “% of CD8- (CD4+) cells positive for E7(11-19) tetramer staining” value is 0.07%.

The target in another experiment is T4, HPV 16 E6(29-38)-peptide-MHC tetramer complex (human papillomavirus 16 (HPV16); human).
T4 construct: also called E6(29-38)-specific tetramer
The experiment is described as above.
Method: as §1, §2, §3
For the molecule B8, the “% of CD8+ cells positive for E6(29-38) tetramer staining” value was found to be 0.23% and the “% of CD8- (CD4+) cells positive for E6(29-38) tetramer staining” value was determined as 0.19%.
In the case of B9, the “% of CD8+ cells positive for E6(29-38) tetramer staining” value is 0.17% and the “% of CD8- (CD4+) cells positive for E6(29-38) tetramer staining” value is 0.11%.
In the case of B10, the “% of CD8+ cells positive for E6(29-38) tetramer staining” value came out at 0.14% and the “% of CD8- (CD4+) cells positive for E6(29-38) tetramer staining” value was found to be 0.11%.
Regarding B11, the “% of CD8+ cells positive for E6(29-38) tetramer staining” value came out at 0.15% and the “% of CD8- (CD4+) cells positive for E6(29-38) tetramer staining” value came out at 0.12%.
For the molecule B12, the “% of CD8+ cells positive for E6(29-38) tetramer staining” value was 0.11% and the “% of CD8- (CD4+) cells positive for E6(29-38) tetramer staining” value stood at 0.16%.
Take B13: the “% of CD8+ cells positive for E6(29-38) tetramer staining” value was 0.15% and the “% of CD8- (CD4+) cells positive for E6(29-38) tetramer staining” value amounted to 0.07%.
As to B15, the “% of CD8+ cells positive for E6(29-38) tetramer staining” value came out at 0.07% and the “% of CD8- (CD4+) cells positive for E6(29-38) tetramer staining” value was determined as 0.12%.
For B16 the same measures were 0.23% and 0.12%.
For the molecule B17, the “% of CD8+ cells positive for E6(29-38) tetramer staining” value is 0.2% and the “% of CD8- (CD4+) cells positive for E6(29-38) tetramer staining” value came to 0.04%.
